Results from patent US20250018014A1, “METHOD FOR TREATING AND/OR PREVENTING REGNASE-1-RELATED DISEASE” (OSAKA UNIVERSITY, priority 2018, published 2025).
No end group written: not given here.

What was measured:
[1] = molecular target: T1, Peptide 2 (AFPPREYWSEPYPLPPPTC-NH2), biotin-conjugated (human, also: biotin-conjugated, position not given here); test: flow cytometry of streptavidin beads carrying the biotinylated antigen, anti-rabbit IgG Alexa488
T1 peptide: AFPPREYWSEPYPLPPPTC-NH2
Description: (§1) These beads were mixed with each anti-Regnase-1 antibody, and they were allowed to react. Thereafter, Anti-Rabbit IgG1 Alexa488 (molecular probes, A21244) was mixed and reacted, and analysis was performed with iQue screener PLUS (intellicyt). Data was analyzed with FlowJo ver10.

[2] = molecular target: T2, FL_Reg1 (human full-length Regnase-1) (Homo sapiens, UniProt Q5D1E8); test: Binding of anti-non-phosphorylated Regnase-1 peptide antibodies to bead-bound full length human Regnase-1 (iQue screener); settings: streptavidin-immobilized beads; histograms FIG. 32
T2 construct: made in house; host or cells: Expi293 cells
T2 sequence (Q5D1E8 1-599): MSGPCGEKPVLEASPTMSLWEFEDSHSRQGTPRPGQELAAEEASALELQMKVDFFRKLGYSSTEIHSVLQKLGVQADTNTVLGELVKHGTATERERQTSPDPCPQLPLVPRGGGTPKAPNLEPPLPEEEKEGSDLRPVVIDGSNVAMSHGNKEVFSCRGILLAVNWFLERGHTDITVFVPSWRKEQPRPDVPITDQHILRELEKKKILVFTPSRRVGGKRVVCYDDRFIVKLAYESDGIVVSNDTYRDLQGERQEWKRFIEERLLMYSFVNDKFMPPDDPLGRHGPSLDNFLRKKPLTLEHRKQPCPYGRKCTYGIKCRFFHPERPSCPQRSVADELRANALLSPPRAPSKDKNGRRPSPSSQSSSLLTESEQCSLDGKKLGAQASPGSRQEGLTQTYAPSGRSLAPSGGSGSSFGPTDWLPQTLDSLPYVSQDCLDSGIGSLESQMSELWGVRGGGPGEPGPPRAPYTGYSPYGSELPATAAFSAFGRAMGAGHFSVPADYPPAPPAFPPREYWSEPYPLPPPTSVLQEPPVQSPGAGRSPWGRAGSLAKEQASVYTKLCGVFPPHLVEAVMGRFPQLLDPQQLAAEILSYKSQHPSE
Description: (§2) • Biotin-Conjugated FL_Reg1, Biotin-Conjugated Peptide • […], biotin-conjugated peptide • AFPPREYWSEPYPLPPPTC-NH2, and biotinylated BSA (Sigma, A8549) were each bound to streptavidin-immobilized beads.
as §1

[3] = molecular target: T3, Peptide 2 ([…]-NH2), partial peptide of human Regnase-1 (Homo sapiens, UniProt Q5D1E8); test: Binding of anti-non-phosphorylated Regnase-1 peptide antibodies to bead-bound Peptide 2 (iQue screener); settings: streptavidin-immobilized beads; histograms FIG. 32
T3 construct: made in house; host or cells: chemical synthesis
Description: as §2, §1

[4] = molecular target: T4, Regnase-1 phosphorylation by TBK1 (Homo sapiens, UniProt Q5D1E8); test: Inhibitory activity of anti-Regnase-1 antibodies against Regnase-1 phosphorylation by TBK1 (Phos-tag gel, western blotting); assay type: biochemical; settings: antibody at final concentrations of 16.7 μg/mL and 5.0 μg/mL; relative to Control group
T4 construct: GST (N, cleaved yes); made in house; host or cells: Expi293 cells
T4 sequence (Q5D1E8 1-599): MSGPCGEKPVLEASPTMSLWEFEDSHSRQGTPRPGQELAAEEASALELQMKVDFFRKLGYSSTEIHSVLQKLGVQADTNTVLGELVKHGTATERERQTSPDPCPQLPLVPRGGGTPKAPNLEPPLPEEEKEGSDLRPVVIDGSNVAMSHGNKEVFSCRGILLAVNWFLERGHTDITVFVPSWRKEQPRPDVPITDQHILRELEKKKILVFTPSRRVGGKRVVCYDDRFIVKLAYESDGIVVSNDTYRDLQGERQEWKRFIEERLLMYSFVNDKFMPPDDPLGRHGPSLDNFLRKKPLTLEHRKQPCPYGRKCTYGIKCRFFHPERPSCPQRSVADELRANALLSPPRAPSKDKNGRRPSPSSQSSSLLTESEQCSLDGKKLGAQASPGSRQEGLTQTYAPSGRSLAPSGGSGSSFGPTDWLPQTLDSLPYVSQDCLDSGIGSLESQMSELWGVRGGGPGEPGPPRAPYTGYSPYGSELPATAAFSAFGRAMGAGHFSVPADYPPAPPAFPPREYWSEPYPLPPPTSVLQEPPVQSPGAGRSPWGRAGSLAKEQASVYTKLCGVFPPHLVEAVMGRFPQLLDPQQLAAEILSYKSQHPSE
Description: To a solution (ATP buffer) containing Kinase Assay Buffer III (manufactured by SignalChem) supplemented with 2 mM DTT, 100 μM sodium vanadate, 2 mM manganese chloride, and 15 μM ATP, dephosphorylated Regnase-1 was mixed at 150 nM. Four microliters of this solution and 4 μL of HEPES Buffered Saline containing 50 μg/mL or 15 μg/mL of anti-Regnase-1 antibody were mixed, and this was allowed to react for one hour. This reaction solution was mixed with 4 μL of ATP buffer containing 150 nM of each kinase (IKKβ or TBK1), and further reacted for one hour. After the reaction, 4 μL of 4× Laemmli Sample buffer (manufactured by Bio-Rad) was added and this mixture was incubated at 95° C. for five minutes for protein denaturation treatment. This sample was ice-cooled for three minutes, and 10 μL of it was added to SuperSep Phos-tag 7.5% 17 wells (manufactured by Wako) placed in EasySeparator (manufactured by Wako). As a marker, 10 μL of WIDE-VIEW Prestained Protein Size Marker III (manufactured by Wako) was added, and the EasySeparator was filled with Tris-Glycine SDS buffer (manufactured by Takara). After electrophoresis at 175 V for 70 minutes, this was washed with 10% Tris-Glycine SDS buffer containing 5 mM EDTA and 20% MeOH for 10 minutes. After two further washings, washing was performed with 10% Tris-Glycine SDS buffer containing 20% MeOH for ten minutes. The washed gel was placed in the Trans-Blot Turbo Transfer Pack (manufactured by Bio-Rad), and transferred using the BioRad Transfer Turbo (manufactured by Bio-Rad). […] Chemiluminescence was detected using ImageQuant LAS4000 mini (manufactured by GE Healthcare).
A band for phosphorylated Regnase-1 was detected due to treatment with each kinase (FIG. 33A). Band densities were measured with Image Quant-TL (manufactured by GE Healthcare). The relative value for the band density of the sample to which each compound was added was calculated, considering the band density of the kinase-added sample of the Control group, to which no compound was added, as 1. […]

Molecule | binding result [1] | binding to FL_Reg1 compared with biotinylated BSA [2] | binding to Peptide 2 compared with biotinylated BSA [3] | density of the phosphorylated Regnase-1 band in TBK1 treatment [4]
REB0014 (antibody, V domains shown, Cloned from immunized rabbits, expressed in HEK293 cells, purified by Protein A; also called anti-Regnase-1 antibody; anti-non-phosphorylated Regnase-1 peptide antibody) VH: QSLEESGGGLVKPGGTLTLTCKASGIDFSSYYYMCWVRQAPGKGLEWIACIYSGDGSSYYVSWANGRFTISKTSSATVTLQMTSLTAADTATYFCARDLGNLWGPGTLVTVSS VL: QVLTQTPASVSAAVGGTVTINCQASQSVYKNSGLSWFQQKPGQSPKRLIYSASTLDSGVPSRFKGSGSGTQFTLTISDVQCDDAATYYCLGIYVCSSVDCGAFGGGTEVVVKG | binds |  |  | 
REB0022: anti-Regnase-1 antibody; heavy chain SEQ ID NO: 28, light chain SEQ ID NO: 29 (antibody) heavy: QEQLEESGGDLVKPEGSLTLTCTASGGSFSSRYWMCWVRQAPGKGLEWIACIVIGDRNNYYASWAKGRFTISKTSSTTVTLQMTSLTAADTATYFCARWHSSTAPSLWGPGTLVTVSSGQPKAPSVFPLAPCCGDTPSSTVTLGCLVKGYLPEPVTVTWNSGTLTNGVRTFPSVRQSSGLYSLSSVVSVTSSSQPVTCNVAHPATNTKVDKTVAPSTCSKPTCPPPELLGGPSVFIFPPKPKDTLMISRTPEVTCVVVDVSQDDPEVQFTWYINNEQVRTARPPLREQQFNSTIRVVSTLPITHQDWLRGKEFKCKVHNKALPAPIEKTISKARGQPLEPKVYTMGPPREELSSRSVSLTCMINGFYPSDISVEWEKNGKAEDNYKTTPAVLDSDGSYFLYNKLSVPTSEWQRGDVFTCSVMHEALHNHYTQKSISRSPGK light: DVVMTQTPASVSEPVGGTVTINCQASQSISSYLSWYQQKPGQPPKLLIYKASTLASGVSSRFKGSGSGTEFTLTISDLECADAATYYCQCSYYVSGFVFGGGTEVVVKGDPVAPTVLIFPPAADQVATGTVTIVCVANKYFPDVTVTWEVDGTTQTTGIENSKTPQNSADCTYNLSSTLTLTSTQYNSHKEYTCKVTQGTTSVVQSFNRGDC |  | bound more strongly | bound more strongly | decreased
REB0014: anti-Regnase-1 antibody; heavy chain SEQ ID NO: 26, light chain SEQ ID NO: 27 (antibody) heavy: QSLEESGGGLVKPGGTLTLTCKASGIDFSSYYYMCWVRQAPGKGLEWIACIYSGDGSSYYVSWANGRFTISKTSSATVTLQMTSLTAADTATYFCARDLGNLWGPGTLVTVSSGQPKAPSVFPLAPCCGDTPSSTVTLGCLVKGYLPEPVTVTWNSGTLTNGVRTFPSVRQSSGLYSLSSVVSVTSSSQPVTCNVAHPATNTKVDKTVAPSTCSKPTCPPPELLGGPSVFIFPPKPKDTLMISRTPEVTCVVVDVSQDDPEVQFTWYINNEQVRTARPPLREQQFNSTIRVVSTLPITHQDWLRGKEFKCKVHNKALPAPIEKTISKARGQPLEPKVYTMGPPREELSSRSVSLTCMINGFYPSDISVEWEKNGKAEDNYKTTPAVLDSDGSYFLYNKLSVPTSEWQRGDVFTCSVMHEALHNHYTQKSISRSPGK light: QVLTQTPASVSAAVGGTVTINCQASQSVYKNSGLSWFQQKPGQSPKRLIYSASTLDSGVPSRFKGSGSGTQFTLTISDVQCDDAATYYCLGIYVCSSVDCGAFGGGTEVVVKGDPVAPTVLIFPPAADQVATGTVTIVCVANKYFPDVTVTWEVDGTTQTTGIENSKTPQNSADCTYNLSSTLTLTSTQYNSHKEYTCKVTQGTTSVVQSFNRGDC |  | bound more strongly | bound more strongly | decreased
REB0007 (antibody, V domains shown, Cloned from immunized rabbits, expressed in HEK293 cells, purified by Protein A; also called anti-Regnase-1 antibody; anti-non-phosphorylated Regnase-1 peptide antibody) VH: QEQLEESGGDLVKPEGSLTLTCTASGFSFNSRYWICWVRQAPGKGLEWIGCIVSGDSNTYYASWAKGRFTISKTSSTTVTLQMTSLTAADTATYFCARWYTSSRPGLWGPGTLVTVSS VL: DVVMTQTPASVSEPVGGTVTIKCQASQSISSYLSWYQQKPGQPPKLLIYSATNLASGVSSRFKGSRFGTEFTLTISDLECDDAATYYCQCSYYVSGFAFGGGTEVVVKG | binds |  |  | 
REB0022 (antibody, V domains shown, Cloned from immunized rabbits, expressed in HEK293 cells, purified by Protein A; also called anti-Regnase-1 antibody; anti-non-phosphorylated Regnase-1 peptide antibody) VH: QEQLEESGGDLVKPEGSLTLTCTASGGSFSSRYWMCWVRQAPGKGLEWIACIVIGDRNNYYASWAKGRFTISKTSSTTVTLQMTSLTAADTATYFCARWHSSTAPSLWGPGTLVTVSS VL: DVVMTQTPASVSEPVGGTVTINCQASQSISSYLSWYQQKPGQPPKLLIYKASTLASGVSSRFKGSGSGTEFTLTISDLECADAATYYCQCSYYVSGFVFGGGTEVVVKG | binds |  |  | 
REB0007: anti-Regnase-1 antibody; heavy chain SEQ ID NO: 24, light chain SEQ ID NO: 25 (antibody) heavy: QEQLEESGGDLVKPEGSLTLTCTASGFSFNSRYWICWVRQAPGKGLEWIGCIVSGDSNTYYASWAKGRFTISKTSSTTVTLQMTSLTAADTATYFCARWYTSSRPGLWGPGTLVTVSSGQPKAPSVFPLAPCCGDTPSSTVTLGCLVKGYLPEPVTVTWNSGTLTNGVRTFPSVRQSSGLYSLSSVVSVTSSSQPVTCNVAHPATNTKVDKTVAPSTCSKPTCPPPELLGGPSVFIFPPKPKDTLMISRTPEVTCVVVDVSQDDPEVQFTWYINNEQVRTARPPLREQQFNSTIRVVSTLPITHQDWLRGKEFKCKVHNKALPAPIEKTISKARGQPLEPKVYTMGPPREELSSRSVSLTCMINGFYPSDISVEWEKNGKAEDNYKTTPAVLDSDGSYFLYNKLSVPTSEWQRGDVFTCSVMHEALHNHYTQKSISRSPGK light: DVVMTQTPASVSEPVGGTVTIKCQASQSISSYLSWYQQKPGQPPKLLIYSATNLASGVSSRFKGSRFGTEFTLTISDLECDDAATYYCQCSYYVSGFAFGGGTEVVVKGDPVAPTVLIFPPAADQVATGTVTIVCVANKYFPDVTVTWEVDGTTQTTGIENSKTPQNSADCTYNLSSTLTLTSTQYNSHKEYTCKVTQGTTSVVQSFNRGD |  | bound more strongly | bound more strongly | decreased
